Measured values reported in paper PMC10477060.

Target: GST-tagged p65_(532–550) (human)
Assay: pull-down

| Substance | binding efficiency (bound fragment intensity/input fragment intensity) |
| --- | --- |
| His-DNA-PKcs_(541-988) (from UniProt P78527 541-988) (domain or fragment) | 17% |
| His-DNA-PKcs_(2408-2819) (from UniProt P78527 2408-2819) (domain or fragment) | 99% |
